This is an account of results in US6767890 (COASTSIDE BIO RESOURCES, dated 2004).

No end group written: not given here.

The target in assay [1] is Galanin receptor of rat ileum (rat). The experiment in a line: cell-based or functional assay.
The target of assay [2] is Phospholipase A2 from porcine pancreas (porcine, UniProt P00592 23-146). The assay can be described thus: cell-based or functional assay.
Assay [3] deals with Protein kinase C - γ, rabbit brain (recombinant) (rabbit, UniProt P10829 1-697, limits assumed). The experiment in a line: cell-based or functional assay.
Assay [4] deals with Ca++/calmodulin dependent protein kinase II from rat brain (rat). The assay can be described thus: cell-based or functional assay.
Assay [5] deals with T1, Cyclooxygenase-1 from ram seminal vesicle (ram (sheep), UniProt P05979 25-600).
T1 sequence (looked up): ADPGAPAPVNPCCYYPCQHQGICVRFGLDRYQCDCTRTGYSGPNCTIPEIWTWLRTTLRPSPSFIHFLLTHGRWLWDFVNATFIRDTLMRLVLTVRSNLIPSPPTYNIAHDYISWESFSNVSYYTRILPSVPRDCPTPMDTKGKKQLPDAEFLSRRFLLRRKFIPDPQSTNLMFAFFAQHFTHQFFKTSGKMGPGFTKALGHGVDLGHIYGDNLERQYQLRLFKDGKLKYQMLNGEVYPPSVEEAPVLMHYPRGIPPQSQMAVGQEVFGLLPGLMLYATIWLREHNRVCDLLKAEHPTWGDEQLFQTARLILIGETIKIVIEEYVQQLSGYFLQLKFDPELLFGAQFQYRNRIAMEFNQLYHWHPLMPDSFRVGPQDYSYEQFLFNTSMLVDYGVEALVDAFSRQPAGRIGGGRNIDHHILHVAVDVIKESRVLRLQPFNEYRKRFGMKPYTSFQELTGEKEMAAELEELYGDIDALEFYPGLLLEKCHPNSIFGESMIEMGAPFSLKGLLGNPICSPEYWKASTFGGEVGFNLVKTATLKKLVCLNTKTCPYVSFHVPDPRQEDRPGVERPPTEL
The assay can be described thus: cell-based or functional assay.

Assay [6] concerns the target Protein kinase C, non-selective, from rat brain (rat). The assay can be described thus: cell-based or functional assay.
In assay [7] the target is T2, Cyclooxygenase-2 from sheep placenta (sheep, UniProt P79208 17-603).
T2 sequence (looked up): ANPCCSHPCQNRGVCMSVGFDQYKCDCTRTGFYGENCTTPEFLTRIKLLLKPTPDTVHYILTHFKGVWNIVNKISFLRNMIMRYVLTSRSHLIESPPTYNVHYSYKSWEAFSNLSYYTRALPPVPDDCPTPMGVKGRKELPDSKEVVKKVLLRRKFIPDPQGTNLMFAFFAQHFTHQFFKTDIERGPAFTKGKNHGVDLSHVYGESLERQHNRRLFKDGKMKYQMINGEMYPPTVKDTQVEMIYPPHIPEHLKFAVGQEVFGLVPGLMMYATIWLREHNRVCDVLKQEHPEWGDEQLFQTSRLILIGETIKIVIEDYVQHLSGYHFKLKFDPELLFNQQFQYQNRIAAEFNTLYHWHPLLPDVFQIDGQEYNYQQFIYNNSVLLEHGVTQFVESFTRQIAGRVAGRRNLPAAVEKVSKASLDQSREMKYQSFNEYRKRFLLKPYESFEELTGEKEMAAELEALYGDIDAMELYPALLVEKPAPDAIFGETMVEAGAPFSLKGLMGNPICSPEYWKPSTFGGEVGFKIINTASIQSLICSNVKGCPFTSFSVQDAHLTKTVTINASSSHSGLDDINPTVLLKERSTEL
The assay can be described thus: cell-based or functional assay.

Assay [8] has as its target Collagenase IV from human U937 cells (human, UniProt P14780 107-707). The experiment in a line: cell-based or functional assay.
Assay [9] has as its target T3, Interleukin-1α receptor on mouse Swiss/3T3 cells (mouse, UniProt P13504 20-576).
T3 construct: whole, on cells; also called Interleukin-1α (assay target)
T3 sequence (looked up): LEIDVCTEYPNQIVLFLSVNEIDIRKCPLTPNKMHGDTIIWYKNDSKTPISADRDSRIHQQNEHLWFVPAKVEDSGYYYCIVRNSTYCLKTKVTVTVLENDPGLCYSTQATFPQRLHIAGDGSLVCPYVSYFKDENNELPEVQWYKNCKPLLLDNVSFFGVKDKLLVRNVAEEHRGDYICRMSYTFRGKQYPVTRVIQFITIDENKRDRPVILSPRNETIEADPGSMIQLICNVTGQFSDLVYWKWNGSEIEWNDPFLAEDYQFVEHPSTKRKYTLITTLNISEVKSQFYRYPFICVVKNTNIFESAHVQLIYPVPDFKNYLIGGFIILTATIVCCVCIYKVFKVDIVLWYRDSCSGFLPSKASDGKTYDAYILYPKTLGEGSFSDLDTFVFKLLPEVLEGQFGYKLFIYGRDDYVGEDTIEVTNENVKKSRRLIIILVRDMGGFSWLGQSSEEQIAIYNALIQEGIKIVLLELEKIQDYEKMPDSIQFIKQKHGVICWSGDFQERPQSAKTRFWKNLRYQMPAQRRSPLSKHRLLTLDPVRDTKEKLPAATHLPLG
The experiment in a line: historical value of the assay laboratory, saturation analysis of [125I]IL-1 alpha on mouse Swiss/3T3 cells.

Chain of Phospholipase A2 from porcine pancreas (P00592 23-146): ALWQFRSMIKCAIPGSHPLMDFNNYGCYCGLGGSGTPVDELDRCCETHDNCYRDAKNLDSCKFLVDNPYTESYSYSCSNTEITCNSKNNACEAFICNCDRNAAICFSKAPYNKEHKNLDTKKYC
Chain of Collagenase IV from human U937 cells (P14780 107-707): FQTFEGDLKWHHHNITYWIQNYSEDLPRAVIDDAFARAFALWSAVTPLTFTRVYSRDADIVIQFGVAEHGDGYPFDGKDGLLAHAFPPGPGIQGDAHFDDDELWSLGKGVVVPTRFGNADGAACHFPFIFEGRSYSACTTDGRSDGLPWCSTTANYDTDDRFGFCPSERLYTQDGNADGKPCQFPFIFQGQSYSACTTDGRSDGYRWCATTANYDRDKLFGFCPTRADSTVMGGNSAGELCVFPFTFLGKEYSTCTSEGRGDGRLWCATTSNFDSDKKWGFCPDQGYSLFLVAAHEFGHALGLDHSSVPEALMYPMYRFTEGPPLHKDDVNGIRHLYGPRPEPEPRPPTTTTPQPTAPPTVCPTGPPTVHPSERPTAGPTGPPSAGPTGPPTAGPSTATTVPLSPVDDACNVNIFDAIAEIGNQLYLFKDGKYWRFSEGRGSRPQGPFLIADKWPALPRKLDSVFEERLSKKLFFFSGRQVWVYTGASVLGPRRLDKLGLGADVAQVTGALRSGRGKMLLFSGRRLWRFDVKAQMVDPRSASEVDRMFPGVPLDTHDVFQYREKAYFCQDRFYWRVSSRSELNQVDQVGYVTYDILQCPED

B1: pentapeptide Leu-Pro-Pro-Ser-Arg isolated from the epithelial layer of the sea cucumber Cucumaria frondosa (peptide of Example 1) (peptide)
peptide: LPPSR
modifications: also: at least one D-amino acid, position not given here
B1: in assay [1], the “Agonism (contraction of rat ileum relative to 0.1 µM galanin), peptide 30 µM” value stood at 0%. The “% Inhibition of enzyme activity, peptide 300.0 µM” value in assay [2] is -11%; in assay [5], 2%; in [6], -6%; in [7] it was 2%. Also, the results for the “% Inhibition of enzyme activity, peptide 100.0 µM” value in [3], in [4] and in [8] were -6%, 12% and 2%, respectively.

B2: Interleukin-1α (ligand, UniProt P01583 113-271, looked up)
chain: SAPFSFLSNVKYNFMRIIKYEFILNDALNQSIIRANDQYLTAAALHNLDEAVKFDMGAYKSSKDDAKITVILRISKTQLYVTAQDEDQPVLLKEMPEIPKTITGSETNLLFFWETHGTKNYFTSVAHPNLFIATKQDYWVCLAGGPPSITDFQILENQA
modifications: 125I label on the radioligand
notes: also called IL-1 alpha; [125I]IL-1 alpha
As for B2, the dissociation constant (Kd) in assay [9] turned out to be 0.18 nM.

What is called Kd is the equilibrium constant for the complex coming apart. Lower therefore signals higher affinity.
